The target in assay [1] is T1, PE-labeled AFP158/HLA-A*02:01 tetramer (human, biotinylated via the BSP peptide linked to the C-terminal end of the extracellular domain).
T1 construct: also called AFP158 tetramer; AFP158/HLA-A*02:01 tetramers; not shown: BSP peptide (BirA biotinylation site) at the C-terminus
As to the kind of experiment: flow cytometry, PE-labelled tetramer on transduced J.RT3-T3.5 cells. In general terms: Flow cytometry measures light scatter and fluorescence of single cells or particles in a stream.

In assay [2] the target is T1, PE-labeled AFP158/HLA-A*02:01 tetramer. Kind of assay: flow cytometry, PE-labelled tetramer on transduced Jurkat cells.

B1: anti-AFP158/HLA-A*02:01-abTCR-3 (other)
chain 1: EVQLVQSGAEVKKPGESLTISCKASGYSFPNYWITWVRQMSGGGLEWMGRIDPGDSYTTYNPSFQGHVTISIDKSTNTAYLHWNSLKASDTAMYYCARYYVSLVDIWGQGTLVTVSSASTKGPSVFPLAPSSKSTSGGTAALGCLVKDYFPEPVTVSWNSGALTSGVHTFPAVLQSSGLYSLSSVVTVPSSSLGTQTYICNVNHKPSNTKVDKRVEPKSCESSCDVKLVEKSFETDTNLNFQNLSVIGFRILLLKVAGFNLLMTLRLWSSDYKDHDGDYKDHDIDYKDDDDK
chain 2: QSVLTQPASVSGSPGQSITISCTGTSSDVGGYNYVSWYQQHPGKAPKLMIYDVNNRPSEVSNRFSGSKSGNTASLTISGLQAEDEADYYCSSYTTGSRAVFGGGTKLTVLGQPKANPTVTLFPPSSEELQANKATLVCLISDFYPGAVTVAWKADGSPVKAGVETTKPSKQSNNKYAASSYLSLTPEQWKSHRSYSCQVTHEGSTVEKTVAPTECSADCGFTSVSYQQGVLSATILYEILLGKATLYAVLVSALVLMAMVKRKDFYPYDVPDYA
notes: the junction between chain and tag is not described
Regarding B1, in assay [1], the binding result is given as “binds”.

B2: anti-AFP158/HLA-A*02:01-abTCR-6 (other)
chain 1: EVQLVQSGAEVKKPGESLTISCKASGYSFPNYWITWVRQMSGGGLEWMGRIDPGDSYTTYNPSFQGHVTISIDKSTNTAYLHWNSLKASDTAMYYCARYYVSLVDIWGQGTLVTVSSASTKGPSVFPLAPSSKSTSGGTAALGCLVKDYFPEPVTVSWNSGALTSGVHTFPAVLQSSGLYSLSSVVTVPSSSLGTQTYICNVNHKPSNTKVDKRVEPKSCDHVKPKETENTKQPSKSCHKPKAIVHTEKVNMMSLTVLGLRMLFAKTVAVNFLLTAKLFFLYPYDVPDYA
chain 2: QSVLTQPASVSGSPGQSITISCTGTSSDVGGYNYVSWYQQHPGKAPKLMIYDVNNRPSEVSNRFSGSKSGNTASLTISGLQAEDEADYYCSSYTTGSRAVFGGGTKLTVLGQPKANPTVTLFPPSSEELQANKATLVCLISDFYPGAVTVAWKADGSPVKAGVETTKPSKQSNNKYAASSYLSLTPEQWKSHRSYSCQVTHEGSTVEKTVAPTECSMDPKDNCSKDANDTLLLQLTNTSAYYMYLLLLLKSVVYFAIITCCLLRRTAFCCNGEKSDYKDHDGDYKDHDIDYKDDDDK
notes: as for B1
In the case of B2, the binding result in assay [2] is reported as “binds”.

B3: anti-AFP158/HLA-A*02:01-abTCR-5 (other)
chain 1: QSVLTQPASVSGSPGQSITISCTGTSSDVGGYNYVSWYQQHPGKAPKLMIYDVNNRPSEVSNRFSGSKSGNTASLTISGLQAEDEADYYCSSYTTGSRAVFGGGTKLTVLGQPKANPTVTLFPPSSEELQANKATLVCLISDFYPGAVTVAWKADGSPVKAGVETTKPSKQSNNKYAASSYLSLTPEQWKSHRSYSCQVTHEGSTVEKTVAPTECSDHVKPKETENTKQPSKSCHKPKAIVHTEKVNMMSLTVLGLRMLFAKTVAVNFLLTAKLFFLYPYDVPDYA
chain 2: EVQLVQSGAEVKKPGESLTISCKASGYSFPNYWITWVRQMSGGGLEWMGRIDPGDSYTTYNPSFQGHVTISIDKSTNTAYLHWNSLKASDTAMYYCARYYVSLVDIWGQGTLVTVSSASTKGPSVFPLAPSSKSTSGGTAALGCLVKDYFPEPVTVSWNSGALTSGVHTFPAVLQSSGLYSLSSVVTVPSSSLGTQTYICNVNHKPSNTKVDKRVEPKSCMDPKDNCSKDANDTLLLQLTNTSAYYMYLLLLLKSVVYFAIITCCLLRRTAFCCNGEKSDYKDHDGDYKDHDIDYKDDDDK
notes: as for B1
For B3, the binding result in assay [2] is “binds”.

B4: anti-AFP158/HLA-A*02:01-abTCR-4 (other)
chain 1: QSVLTQPASVSGSPGQSITISCTGTSSDVGGYNYVSWYQQHPGKAPKLMIYDVNNRPSEVSNRFSGSKSGNTASLTISGLQAEDEADYYCSSYTTGSRAVFGGGTKLTVLGQPKANPTVTLFPPSSEELQANKATLVCLISDFYPGAVTVAWKADGSPVKAGVETTKPSKQSNNKYAASSYLSLTPEQWKSHRSYSCQVTHEGSTVEKTVAPTECSESSCDVKLVEKSFETDTNLNFQNLSVIGFRILLLKVAGFNLLMTLRLWSSDYKDHDGDYKDHDIDYKDDDDK
chain 2: EVQLVQSGAEVKKPGESLTISCKASGYSFPNYWITWVRQMSGGGLEWMGRIDPGDSYTTYNPSFQGHVTISIDKSTNTAYLHWNSLKASDTAMYYCARYYVSLVDIWGQGTLVTVSSASTKGPSVFPLAPSSKSTSGGTAALGCLVKDYFPEPVTVSWNSGALTSGVHTFPAVLQSSGLYSLSSVVTVPSSSLGTQTYICNVNHKPSNTKVDKRVEPKSCADCGFTSVSYQQGVLSATILYEILLGKATLYAVLVSALVLMAMVKRKDFYPYDVPDYA
notes: as for B1
On to B4, for which, in assay [2], the binding result is on record as “binds”.

For the origin of these results see patent US20200115434A1 (EUREKA THERAPEUTICS, published 2020).
